Data as given in patent US20140128319A1.

Legend:
[1] = target: Type 1 IGF receptor (IGF-1R) (human) (UniProt P08069); assay: competitive displacement of 125I-labeled IGF-I; IGF-1R (FIG. 9B)
[2] = target: Type 1 IGF receptor (IGF-1R) (human) (UniProt P08069); assay: competitive displacement of 125I-Tyr31-human IGF-I; human IGF-1R, Experiment 2
[3] = target: Type 1 IGF receptor (IGF-1R) (human) (UniProt P08069); assay: competitive displacement of 125I-Tyr31-human IGF-I; human IGF-1R, Experiment 1

Type 1 IGF receptor (IGF-1R) (human), sequence (P08069 31-1367 limits assumed): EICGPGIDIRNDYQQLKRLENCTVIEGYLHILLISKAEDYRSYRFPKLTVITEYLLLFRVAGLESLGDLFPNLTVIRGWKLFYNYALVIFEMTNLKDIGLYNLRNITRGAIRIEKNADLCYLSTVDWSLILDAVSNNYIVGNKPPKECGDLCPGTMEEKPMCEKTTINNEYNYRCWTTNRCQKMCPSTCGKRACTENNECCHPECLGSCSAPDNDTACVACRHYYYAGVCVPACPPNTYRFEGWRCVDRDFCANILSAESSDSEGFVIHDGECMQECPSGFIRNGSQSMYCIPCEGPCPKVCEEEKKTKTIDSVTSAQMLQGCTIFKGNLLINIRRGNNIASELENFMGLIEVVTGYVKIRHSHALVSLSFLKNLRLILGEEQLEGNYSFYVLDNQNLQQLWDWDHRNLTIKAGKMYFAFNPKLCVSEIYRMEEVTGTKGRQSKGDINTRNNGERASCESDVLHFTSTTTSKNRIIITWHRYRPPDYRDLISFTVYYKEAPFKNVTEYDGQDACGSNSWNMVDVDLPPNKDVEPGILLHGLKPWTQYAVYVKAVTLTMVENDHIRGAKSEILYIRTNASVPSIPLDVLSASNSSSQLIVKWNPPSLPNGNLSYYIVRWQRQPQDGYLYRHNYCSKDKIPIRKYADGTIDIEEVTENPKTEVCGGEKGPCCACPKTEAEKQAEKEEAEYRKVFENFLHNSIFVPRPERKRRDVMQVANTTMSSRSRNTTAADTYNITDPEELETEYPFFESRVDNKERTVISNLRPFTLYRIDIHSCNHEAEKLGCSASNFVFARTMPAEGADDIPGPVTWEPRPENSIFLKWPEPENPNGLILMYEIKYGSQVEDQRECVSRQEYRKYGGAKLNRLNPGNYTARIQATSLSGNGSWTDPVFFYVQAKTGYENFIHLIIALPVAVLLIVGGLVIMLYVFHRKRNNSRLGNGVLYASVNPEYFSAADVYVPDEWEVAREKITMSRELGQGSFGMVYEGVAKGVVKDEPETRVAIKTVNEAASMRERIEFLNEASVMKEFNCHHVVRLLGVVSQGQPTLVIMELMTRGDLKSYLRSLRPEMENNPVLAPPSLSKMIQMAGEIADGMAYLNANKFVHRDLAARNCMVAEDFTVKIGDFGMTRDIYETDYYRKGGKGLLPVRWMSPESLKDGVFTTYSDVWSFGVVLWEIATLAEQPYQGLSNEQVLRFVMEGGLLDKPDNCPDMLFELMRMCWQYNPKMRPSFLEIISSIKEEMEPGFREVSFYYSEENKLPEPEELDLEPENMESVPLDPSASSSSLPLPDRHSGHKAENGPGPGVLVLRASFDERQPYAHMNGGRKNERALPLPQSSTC

Substance | fold reduction of cross-binding relative to KP-insulin or wild-type insulin [1] [fold] | Kd [2] [nM] | Kd [3] [nM]
4Cl-Phe^B24-KP-insulin (ligand; para-monochloro-phenylalanine (4Cl-Phe) at B24; other documents disagree on this pair) | 3 |  | 
KP-insulin (ligand; other documents disagree on this pair) |  | 15.3 | 12.6
penta-fluoro-Phe^B24-KP-insulin (ligand; penta-fluoro-phenylalanine (F5-Phe) at B24; other documents disagree on this pair) |  |  | 522
